According to article PMC10210160, “Structural and biochemical elucidation of class I hybrid cluster protein natively extracted from a marine methanogenic archaeon” (Frontiers in Microbiology, 2023):

Assays:
[1] = biological target: T1, MtHCP (hybrid cluster protein, class I) (Methanothermococcus thermolithotrophicus, UniProt A0AA82WPD8); assay: X-ray crystal structure, […] Å; type: binding; settings: as isolated, reduced state (MtHCPred)
T1 construct: gene hcp; native anaerobic purification from the archaeon, untagged; five extra N-terminal residues versus WP_026182881.1 (mispredicted start Met)
T1 sequence (A0AA82WPD8 1-548): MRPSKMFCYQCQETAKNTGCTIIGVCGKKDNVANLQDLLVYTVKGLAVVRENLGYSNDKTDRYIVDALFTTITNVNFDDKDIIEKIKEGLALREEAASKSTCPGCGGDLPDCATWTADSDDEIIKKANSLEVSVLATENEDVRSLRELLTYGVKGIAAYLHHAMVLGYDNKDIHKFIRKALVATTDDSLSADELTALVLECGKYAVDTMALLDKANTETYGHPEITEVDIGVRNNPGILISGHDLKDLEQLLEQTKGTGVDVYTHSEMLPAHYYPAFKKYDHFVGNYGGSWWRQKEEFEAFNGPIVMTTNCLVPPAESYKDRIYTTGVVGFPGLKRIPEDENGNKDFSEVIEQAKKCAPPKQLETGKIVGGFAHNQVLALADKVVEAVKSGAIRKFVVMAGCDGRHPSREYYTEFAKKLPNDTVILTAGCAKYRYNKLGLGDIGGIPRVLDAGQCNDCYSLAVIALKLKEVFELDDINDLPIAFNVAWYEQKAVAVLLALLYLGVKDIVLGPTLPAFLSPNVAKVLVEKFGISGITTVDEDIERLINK

purified protein = substrate: NO; assay: purified protein; type: biochemical, Methanothermococcus thermolithotrophicus; settings: 10 mM methyl viologen, 75 μM dithionite, 10 μM EDTA, 50 mM HEPES pH 7.35, 50°C, anaerobic

**Q.** Which “X-ray crystal structure, 1.45 Å” value [1] does the source give for `[S]12[Fe]3[S]4[Fe]1[S]1[Fe]2[S]3[Fe]41` [[4Fe-4S] cluster] here?
**A.** Its value is “harbouring a cubane [4Fe-4S] cluster and the hybrid cluster”.

B1: MtHCP (hybrid cluster protein, class I) (Methanothermococcus thermolithotrophicus DSM 2095) (protein)
chain: MRPSKMFCYQCQETAKNTGCTIIGVCGKKDNVANLQDLLVYTVKGLAVVRENLGYSNDKTDRYIVDALFTTITNVNFDDKDIIEKIKEGLALREEAASKSTCPGCGGDLPDCATWTADSDDEIIKKANSLEVSVLATENEDVRSLRELLTYGVKGIAAYLHHAMVLGYDNKDIHKFIRKALVATTDDSLSADELTALVLECGKYAVDTMALLDKANTETYGHPEITEVDIGVRNNPGILISGHDLKDLEQLLEQTKGTGVDVYTHSEMLPAHYYPAFKKYDHFVGNYGGSWWRQKEEFEAFNGPIVMTTNCLVPPAESYKDRIYTTGVVGFPGLKRIPEDENGNKDFSEVIEQAKKCAPPKQLETGKIVGGFAHNQVLALADKVVEAVKSGAIRKFVVMAGCDGRHPSREYYTEFAKKLPNDTVILTAGCAKYRYNKLGLGDIGGIPRVLDAGQCNDCYSLAVIALKLKEVFELDDINDLPIAFNVAWYEQKAVAVLLALLYLGVKDIVLGPTLPAFLSPNVAKVLVEKFGISGITTVDEDIERLINK
notes: native anaerobic purification from the archaeon, untagged; five extra N-terminal residues versus WP_026182881.1 (mispredicted start Met)
**Q.** Which Km (purified protein) does the source give for B1 here?
**A.** The Km was 2200 ± 500 µM.

**Q.** What about the kcat (purified protein) of the same molecule?
**A.** Its kcat is 0.072 s⁻¹.
